Test: soluble on expression in E. coli; label from the status in PepcDB or PDB records

Row | Sequence | soluble on expression in E. coli
1 | MGSDKIHHHHHHMKKLVATAPRVAELVEYHDREVVEDEVKIKVQFASPKHGTEVVDFRGISPFIDEEFSPEWNLFVSRETNSARGIVFGEFQLGNMVVGEVVECGSKVTEYALGDIVCSYGPIMETVIVKAVDNYKLRKLPKGANWKNAVCYDPAQFAMSGVRDAHVRAGDYVVVVGLGAIGQIAIQLAKKAGASVVIGVDPLSHRREIAEKHGADATFDPITTDVGLEVKRLTGKLGADSIIETSGNAAALQAALRGIAYGGTISYVAFAKPFPEGFNLGREAHFNNAKIVFSRAASEPNPDYPRWDRKRIEETCWELLMNGYLDCTDIIDPVVPFADSAESYMKYVDQQPDLSIKMGITL | not soluble
2 | SLGSVLVDLQIATENIEGLPTEEQIVQWATGAVQPEGNEVEMTVRIVDEAESHELNLTYRGKDRPTNVLSFPFECPDEVELPLLGDLVICRQVVEREASEQEKPLMAHWAHMVVHGSLHLLGYDHIEDDEAEEMESLETQIMQGLGFDDPYLAEK | soluble
3 | MAHHHHHHMKFDKRECINVDLTSQISEQDVTQSVSKGEKKRDSLPQNEKESELSAEKESQMSQPKADEANLKRENSPLSEPNRKGTSVNKKNDCETSHTDKETNLKEYYKDLPTVIIVIGMAGSGKTTYVGSLYNYLKVEKKKKVYTMNLDPAVKYVQYPVNIDIRDSIKYHEIMKEYKLGPNGAIMTCLNLFATRFDKVIEILEKRKNKLHYIIVDTPGQIEVFNWSASGNIILETLSVSFPVVINYIIDTVRCERPITFMSNMLYACSVLYKARLPFLACFNKVDIIKHDKCIEWMKDYDSFNDDVIHDESYMASFSRSCALMINEFYEGIKTVGISSKTNEGFNSILKNLELLKEEYINEYVTSIEKQMKRIKRKKEKDIKLKMENLLIEKQKDLSSSKNKSVN | not soluble
4 | MGSSHHHHHHSSGLVPRGSHMFLTRRDPPLSSFWTKVQYQRLKELNASGEQLEMGFSDALSRDRAFQGIEHQLMSQGKRHLEQLRTVKHRPALLELEEKLAKALHQQGFVQVVTPTIITKSALAKMTIGEDHPLFSQVFWLDGKKCLRPMLAPNLYTLWRELERLWDKPIRIFEIGTCYRKESQGAQHLNEFTMLNLTELGTPLEERHQRLEDMARWVLEAAGIREFELVTESSVVYGDTVDVMKGDLELASGAMGPHFLDEKWEIFDPWVGLGFGLERLLMIREGTQHVQSMARSLSYLDGVRLNIN | soluble
5 | MSLAKTVLVTGASGFIGSHLVGRCLADGCRVKALVRKGNACIDSLRASGVEVIEGDVRDATAVDAAVRESDLVLHAAALTSDWGKMQEFIDINVGGTRNVCEASLRHGVGRLVHVSSFECFDHHLLGRIDEQTPYKARKQSYPDTKIGGTNEVWAAIKRGLSASILYPVWVYGPGDRTLFPLLADSILRRQLFFWARNAPMSMIYIDNLVDLTMLAASRPEAVGEAFMACDGEAITFEEVCRRVAVAIGSPVPSLHLPFGMVRSVAGVMEFVWRIAGSKKRPLLTRQAVDVLASRALADVSKARTMLGWQSHVPQEEGIRRTLEWLVTVDPARWKVKEGHHHHHH | soluble
6 | MDIQTRKSILWDAFEELKTRWGADEKFLERVEEEELTVDGLPESKVRDLIELREKYQLDELEFLFIVGTAVGLYQGQKQVKEILQRRMSALNEFVSSLVGREL | not soluble
7 | MGSDKIHHHHHHLITVQDLELRAGARLLMDQVSFRIDKGDKIGLVGRNGAGKTTLTRVLAGEGLPAAGKVTRSGEIGYLPQDPRTPDMEQLARDRILSVRGLDIAVGKLRLAHEEMASEDAAVQRKAMNRYDRLESEFLAAGGYAAEAEAAAICSNLALPDRLLNQPLKTLSGGQRRRVELARILYSDAETMLLDEPTNHLDADSIAWLRDFLKNHQGGLIVISHDTELLEATVNKVFLLDANRAQIDFYNMDWKRYLQQRETDERARKRERANAEKKAQVLFDQANKMRAKATKAVAAQNMAKRAERLLSGLEAVRENDRVAALRFPDPSPCGKTPLTADGLSKSYGSLEIFTDVDLAIDRGSKVVILGLNGAGKTTLLRMLAGVDKPDTGEVIAGHGLKVGYYAQEHETLDVDRTVLQNMRSSAPDMNDSEVRGILGSFLFSGDDVDKPAGVLSGGEKTRLALATIVASSANVLLLDEPTNNLDPASRTEILGALRNYTGAVVLVSHDEGAVEALNPERVVLLPDGVEDHWNEDYLDLITLA | not soluble
8 | MLTIKNLHASVHNNQILRGVNLTINAGEVHAIMGPNGSGKSTLASVLAGREDYAIVDGDVRYFDEDLFELSPEDRAAKGLFLAFQYPVEIPGVNNLYFLKTAVNSIRKTRGEAPFDAIDLMGLVKEKLALVDMDDKFLKRSVNEGFSGGEKKRNEILQMLMLDPRLAILDETDSGLDIDALQTVAKGVNSLRNKERAILLVTHYQRLLDYIKPDFVHVLVNGRIVLSGDQSLALELEKKGYGWL | soluble
9 | MGSDKIHHHHHHMNTNKRVLILTANYGNGHVQVAKTLYEQCVRLGFQHVTVSNLYQESNPIVSEVTQYLYLKSFSIGKQFYRLFYYGVDKIYNKRKFNIYFKMGNKRLGELVDEHQPDIIINTFPMIVVPEYRRRTGRVIPTFNVMTDFCLHKIWVHENVDKYYVATDYVKEKLLEIGTHPSNVKITGIPIRPQFEESMPVGPIYKKYNLSPNKKVLLIMAGAHGVLKNVKELCENLVKDDQVQVVVVCGKNTALKESLSALEAENGDKLKVLGYVERIDELFRITDCMITKPGGITLTEATAIGVPVILYKPVPGQEKENANFFEDRGAAIVVNRHEEILESVTSLLADEDTLHRMKKNIKDLHLANSSEVILEDILKESEMMTAKQKAKVLS | not soluble
10 | MTVYHFVGIKGTGMSPLAQILHDNGYTVQGSDIEKFIFTQTALEKRNITILPFSAENIKPGMTVIAGNAFPDTHPEIEKAMSEGIPVIRYHKFLGDYMKKFTSVAVTGAHGKTSTTGLLAHVIQNAKPTSFLIGDGTGQGNENSEYFVFEACEYRRHFLSYQPDYAIMTNIDFDHPDYFSSIDDVFDAFQEMALQVNKGIIACGDDEHLPKIHANVPVVYYGTGEENDFQARNIVKSTEGTTFDVFVRNTFYDTFYIPAYGHHNVLNSLAVIALCHYEEIDSSIIKHALKSFGGVKRRFNEKQLGDQVLIDDYAHHPTEIKVTIEAARQKYPDREIVAVFQPHTFTRTQQFLDEFAESLSGADCVYLCDIFGSARENAGKLTIGDLQGKIHNAKLIEEDDTSVLKAHDKAVLIFMGAGDIQKYMRAYENVMA | not soluble
11 | MMNMITVIGFGSFGRKVVNFIKNKEPITIIDKNIDDADDLVKEGVTVIVGDATQDEVLKKAKIENADIVLILTNEPEVNRRIAERVCELSPNSYKIARAIPRYPELYMGLNIDKIINILESGAKDIAKEVEDAKLKRKLMQLKSVLIEGKKRCMKLEKTEEEKKAPLLILTHINPDPDAIASAMALKTLAERWGVDSDIAYGGNIGYDENKAMINLLGIKLLNVEDIDLDNYCVIAVIDTSTSKQLPIELPNIDIIIDHHNNTDLTAKYMDVRPEVGATASILTQYLMELDIEPSRNLATALFYGIQSDTDYFKRETSKLDFEAAAYLQSYIDASILNMIENPEISTEVMEVLAKAVMNRRVVKGNIALAYVGEISNRDALPKAADFLLKMEGISTTFVFGIVGDEIHISARTKDLRLNLGEILNKAFGGGGHQTAAAAKIPLGIFKAVSDKEALRKLVEEAIRAKILEVIGIKEEEK | not soluble
12 | MITHAQTILCLDLGSKTGWAICGADGHIFSGVMNFQPRRFEGGGMRYLRFKQWLTEMKMTARRIDAVYFEEVRRHVGTDAAHVYGGLLATLTAWCEHHQIPYEGIPVGTIKKETTGKGNASKEEMIKAVCAKGHAPKDDNEADALAILYLMKEGGVYVQ | not soluble
13 | MGSDKIHHHHHHDGMGLSQVYLTSMLEGRPLSFMKTPYIGLVKTHSANSWVTDSAAAGTALASGFKTNNGMINILPDGTVVPTIFEVAKTYGVRTGIVVTCRVTHATPAAFYAHVKSRDEENEIARQLVENETVDVVMGGGWANFLPKDLGGKRDDNLNLIELAKEKGYIYVKTREELSKISADSDKILALFAPSHLDPASSRKEQPMLYEMVEKALEILSKDDEPFFLMVEGSQIDWEAHDNDIYGVWKEVVEFDKAVQVALDFALKRGDTLVIVTADHETGGLGLSSGDYRVDVDKIRNFKKTTDWIMANYSPKDREKFKKAIEEYFGLTLSDEDLNRISMSKNPKIELGRILGEKVSVGWTTTTHSGTPVPIFAFGPGAENFTGFLDNTEIPRIIMKLTGYSLQYPLLKEPVTK | not soluble
14 | MFAVDPQMNQTVNSPKGQLLLRTLAMPADTNANGDIFGGWIMSQLDLAGGILAKEISCGRIVTVSVSSITFKKPVKVGDVVCCYGECTKIGRTSMSINLEVWVKPVKEEGVGERFQVCEATFNYVAIDANGRPRAISLSNGSQKSSLEHHHHHH | not soluble
15 | MAHHHHHHMPMILNEGWNIIQINLQEYTEKAFRTKYMETMDIQINASIRIRCIYFCDKLYNNDELKDEYKIFSKKKEKIKYTPPQCLNKPLKKMTIKSIITEGVSKGGENLPTEVEANKATTENEILEDSSTSGNSKKTDVEPTSQKNLQSIDMTEGIELYEESTDDPFFDEKNDGEGTPLAQVIGGEELLVGGEESTEVANNMTMDLTENTVTGTMNGPMKDQQDAEEAEHLAHIKTLEMDDTNVLYEDVNYETYNNDDH | soluble
16 | MGSDKIHHHHHHMKRMTKIGIYGMAVWMLSACGNGTPDYDATGTFEATEVIVSAEAAGKLLQLEVEEGTRLKAGEEVGLVDTVQLYLKKLQLEASMKSVESQRPDLAKQIAATKQQITTAQREKKRVENLLAAGAANQKQLDDWDAQVTLLQQQLIAQESSLMKSTNSLTEQGNSVSIQVAQVEDQLNKCHIQSPIEGTVLAKYAEGGELASVGKPLFKVGEVDRMYLRAYVTSEQLSQVKLGDKVTVYSDYGNSEQKAYPGVVTWISDRSEFTPKTILTKNERANLVYAVKIAVKNDGSLKIGMYGGVVWKKENP | not soluble
17 | MSLATIVVKTTPDNEIAYWPTGKEHLFCIALGTKAQAGPLGEFVHQFRTDRPGMVQVWTQGSDSFTLYLTPGSKDTITVTKDTLIISGTNSAYNRCLKTVNDYQKYSDKLVYMQPHELRGITSLEQYHRLADARMRQALDAVNASGLNEEFLAEQRAHIDYIRRSIFIHIARQLSRKEKLPEDWQRELTEVINSSVNGDYLRSYRGIGFFVNDLVMMQFTNLENGDLKEIKEYASFLFDRYRKFFTGDNLQYMQAQLIYEDEFQGSKTPSIPQLYETYRAEFPNSPFLNVLEPGVKENLRFQNSRITDKDYHILTCDSTITSLEDAVKPFKGKVVYIDVWATWCGPCLKEFQYLPTLKEKAHNMDVVYLYISIDRPEERKKWEKTIAYHQLKGYHLLVNEKLGKSLYTELGNERQILSIPCFVIIDKTGKIVIRHAAAPSEPEKVIEQLSTYYNKEGHHHHHH | soluble
18 | VLQTRNYTCGPAALATVLQRLGVNTTEDELAGLAGTTEEGTTMQGLLEASRAKGMNATGMKLNISELKENMIAYTINDGTGHYTVINEITNDTIKLADPSLGNIEMNIEEFAEIYSGYTLVI | soluble
19 | MRIDPFKLAHWMNARKYTAAQTADLAGLPLDDLRRLLGDEANEPDPAAATALAEALSVEPSQLAADAHRNLTVVHKSAEEMHASRRPIQRDGIHFYNYYTLAAPEGRVAPVVLDILCPSDRLPALNNGHLEPAITVNLGPGDINGRWGEEITPQTWRVLHANHGGDRWITGDSYVEPSYCPHSYSLAGDAPARIVSYTAQSNISPLMTEANNWSTGAFEEALKALSGKVSAGSVLDLFLARRAHTRTSAAEAAGVPPADLEAALRSPASETGLTVLRTLGRALGFDYRVLLPADDQHDGVGKTWTTIEDSRRSRRTFGTYEAASMASAAHLPDLVGSFLRVDADGRGADLIDHAENHYVVTEGRLTLEWDGPDGPASVELEPDGSAWTGPFVRHRWHGTGTVLKFGSGAHLGYQDWLELTNTFEPAATLRRGRRDLAGWGYDN | soluble
